Assay results reported in patent US20210260070A1, “LYSIN CF-301 RESENSITIZES METHICILLIN-RESISTANT STAPHYLOCOCCUS AUREUA (MRSA) TO PENICILLIN DERIVATIVES AND FIRST GENERATION CEPHALOSPORINS” (priority 2018, published 2021).
Several values for one entry are separate records, joined by “and”; a condition that tells them apart may be missing. Identical values can stand only once.

Tests used:
[1] = test system: nine different MRSA strains; assay: Broth microdilution checkerboard assays, summary over the panel; type: cell-based, Staphylococcus aureus; conditions: each of the nine MRSA strains; breakpoint MIC ≤2 sensitive
Description: (§1) In some embodiments, the present lysin polypeptides reduce the minimum inhibitory concentration (MIC) of an antibiotic. Any known method to assess MIC may be used. In some embodiments, a checkerboard assay is used to determine the effect of a lysin on antibiotic concentration. The checkerboard assay is based on a modification of the CLSI method for MIC determination by broth microdilution (See Clinical and Laboratory Standards Institute (CLSI), CLSI. 2015. Methods for Dilution Antimicrobial Susceptibility Tests for Bacteria That Grow Aerobically; Approved Standard-10th Edition. Clinical and Laboratory Standards Institute, Wayne, Pa., which is herein incorporated by reference in its entirety and Ceri et al. 1999. J. Clin. Microbiol. 37: 1771-1776, which is also herein incorporated by reference in its entirety).
(§2) Checkerboards are constructed by first preparing columns of e.g., a 96-well polypropylene microtiter plate, wherein each well has the same amount of antibiotic diluted 2-fold along the horizontal axis. […] The lysin and antibiotic dilutions are then combined, so that each column has a constant amount of antibiotic and doubling dilutions of lysin, while each row has a constant amount of lysin and doubling dilutions of antibiotic. Each well thus has a unique combination of lysin and antibiotic. Bacteria are added to the drug combinations at a given concentration. […] Summation fractional inhibitory concentrations (ΣFICs) are calculated for each drug and the minimum ΣFIC value (ΣFICmin) is used to determine the effect of the lysin/antibiotic combination.
A step-wise approach was used to evaluate PlySs2 as a resensitizing agent. First, broth microdilution checkerboard assays were used to determine fractional inhibitory concentration index (FICI) values for combinations of PlySs2 with three β-lactam antibiotics [oxacillin (OXA), nafcillin (NAF), and cefazoline (CFZ)] against nine different MRSA strains. […] Representative single agent MICs are also shown, determined for each agent alone (initial) and in combinations (final). […]

[2] = test system: MRSA strain NRS 11; assay: Broth microdilution checkerboard assay; type: cell-based, Staphylococcus aureus; parameters: unit not given here; conditions: for MICinitial: each agent alone (initial); for MICfinal: * = Resensitization
Description: as §1, §2
(§3) A step-wise approach was used to evaluate PlySs2 as a resensitizing agent. First, broth microdilution checkerboard assays were used to determine fractional inhibitory concentration index (FICI) values for combinations of PlySs2 with three β-lactam antibiotics [oxacillin (OXA), nafcillin (NAF), and cefazoline (CFZ)] against nine different MRSA strains. Data from the checkerboard assays were generated to determine the interaction and potency of PlySs2 with the β-lactam antibiotics in comparison to their individual activities. This comparison is represented as the FICI value, whereby values of ≤0.5 are consistent with synergy, values of >0.5-<1 are highly-additive, values of 1-≤2 are indifferent, and values >2 are antagonistic. Representative single agent MICs are also shown, determined for each agent alone (initial) and in combinations (final). Resensitization occurs in synergistic combinations in which the β-lactam antibiotic MIC values fall below established breakpoints, e.g. a MIC value of ≤2 for β-lactam-sensitive isolates, a MIC value of ≥4 for β-lactam-resistant isolates. See Clinical and Laboratory Standards Institute (CLSI), CLSI. 2019. M100 Performance Standards for Antimicrobial Susceptibility Testing; 29th Edition. Clinical and Laboratory Standards Institute, Wayne, Pa.

[3] = test system: MRSA strain ATCC 33591; assay: Broth microdilution checkerboard assay; type: cell-based, Staphylococcus aureus; parameters: unit not given here; conditions: for MICinitial: each agent alone (initial); for MICfinal: * = Resensitization
Description: as §1, §2, §3

[4] = test system: MRSA strain JMI 227; assay: Broth microdilution checkerboard assay; type: cell-based, Staphylococcus aureus; parameters: unit not given here; conditions: for MICinitial: each agent alone (initial); for MICfinal: * = Resensitization
Description: as §1, §2, §3

[5] = test system: MRSA strain MW2; assay: Broth microdilution checkerboard assay; type: cell-based, Staphylococcus aureus; parameters: unit not given here; conditions: for MICinitial: each agent alone (initial); for MICfinal: * = Resensitization
Description: as §1, §2, §3

[6] = test system: MRSA strain CAIRD 426; assay: Broth microdilution checkerboard assay; type: cell-based, Staphylococcus aureus; parameters: unit not given here; conditions: for MICinitial: each agent alone (initial); for MICfinal: * = Resensitization
Description: as §1, §2, §3

[7] = test system: MRSA strain ATCC 43300; assay: Broth microdilution checkerboard assay; type: cell-based, Staphylococcus aureus; parameters: unit not given here; conditions: for MICinitial: each agent alone (initial); for MICfinal: * = Resensitization
Description: as §1, §2, §3

[8] = test system: MRSA strain HPV 107; assay: Broth microdilution checkerboard assay; type: cell-based, Staphylococcus aureus; parameters: unit not given here; conditions: for MICinitial: each agent alone (initial); for MICfinal: * = Resensitization
Description: as §1, §2, §3

[9] = test system: MRSA strain JMI4789; assay: Broth microdilution checkerboard assay; type: cell-based, Staphylococcus aureus; parameters: unit not given here; conditions: for MICinitial: each agent alone (initial); for MICfinal: * = Resensitization
Description: as §1, §2, §3

[10] = test system: MRSA strain JMI 1280; assay: Broth microdilution checkerboard assay; type: cell-based, Staphylococcus aureus; parameters: unit not given here; conditions: for MICinitial: each agent alone (initial); for MICfinal: * = Resensitization
Description: as §1, §2, §3

[11] = test system: MRSA; assay: Standard rabbit model of MRSA infective endocarditis (IE), CFU in valvular vegetations; type: in vivo, Staphylococcus aureus
Protocol: An ex vivo analysis was performed on tissue samples recovered after PlySs2 treatment in a standard rabbit model of MRSA infective endocarditis (IE), as disclosed in Xiong et al., Comparative efficacy of telavancin and daptomycin in experimental endocarditis due to multi-clonotype MRSA strains, J. ANTIMIC. CHEMO. (2016); 71(1):2890-94. The standard rabbit IE model was used to confirm the impact of PlySs2 treatment on oxacillin MICs. Four days after treatment with a single-dose of PlySs2 (0.18 mg/kg to 1.4 mg/kg) in the IE model, isolates were recovered from valvular vegetations and plated on TSAB (non-selective condition, Tables 3 and 4) and TSAB supplemented with PlySs2 over a range of concentrations (selective conditions, Tables 5 and 6). MIC values of the MRSA isolates were determined for both PlySs2 and oxacillin. Tables 3 and 4 below show the MICs calculated for PlySs2 and oxacillin, respectively, for valvular vegetations subject to the non-selective conditions.

[12] = in combination PlySs2 + OXA (final)
[13] = in combination PlySs2 + CFZ (final)
[14] = in combination PlySs2 + NAF (final)

For `Cc1onc(-c2ccccc2)c1C(=O)N[C@@H]1C(=O)N2[C@@H]1SC(C)(C)[C@@H]2C(=O)O` [OXA, oxacillin], the “MIC in synergistic combination with PlySs2 relative to breakpoint” value [1] was “below breakpoint values”, the MICinitial [2] was 256 and the MICfinal [2, 12] was 2*. The MICinitial [3] was 256, the MICfinal [3, 12] was 1* and the MICinitial [4] was 16. The MICfinal [4, 12] was 1*, the MICinitial [5] was 64 and the MICfinal [5, 12] was 2*. For the same molecule, the MICinitial [6] was 4, the MICfinal [6, 12] was 1* and the MICinitial [7] was 8. For the same molecule, the MICfinal [7, 12] was 0.5*, the MICinitial [8] was 8 and the MICfinal [8, 12] was 0.5*. The MICinitial [9] was 64, the MICfinal [9, 12] was 2* and the MICinitial [10] was 256. For the same molecule, the MICfinal [10, 12] was 1*.

B1: PlySs2: bacteriophage lysin derived from Streptococcus suis, amino acid sequence SEQ ID NO: 1 (245 residues) (protein, listed as Streptococcus suis)
chain: MTTVNEALNNVRAQVGSGVSVGNGECYALASWYERMISPDATVGLGAGVGWVSGAIGDTISAKNIGSSYNWQANGWTVSTSGPFKAGQIVTLGATPGNPYGHVVIVEAVDGDRLTILEQNYGGKRYPVRNYYSAASYRQQVVHYITPPGTVAQSAPNLAGSRSYRETGTMTVTVDALNVRRAPNTSGEIVAVYKRGESFDYDTVIIDVNGYVWVSYIGGSGKRNYVATGATKDGKRFGNAWGTFK
Work on B1 yielded an MICinitial [2] of 1, an MICfinal [2, 13] of 0.25 and an MICfinal [2, 14] of 0.25. For the same molecule, the MICfinal [2, 12] was 0.25, the MICinitial [3] was 1 and the MICfinal [3, 13] was 0.25. It also gave an MICfinal [3, 14] of 1.125, an MICfinal [3, 12] of 0.25 and an MICinitial [4] of 1. It also gave an MICfinal [4, 13] of 0.25, an MICfinal [4, 14] of 0.25 and an MICfinal [4, 12] of 0.25. The MICinitial [5] was 1 and 2, the MICfinal [5, 13] was 0.125 and the MICfinal [5, 14] was 0.5. It also gave an MICfinal [5, 12] of 0.25, an MICinitial [6] of 1 and an MICfinal [6, 13] of 0.25. It also gave an MICfinal [6, 14] of 0.25, an MICfinal [6, 12] of 0.25 and an MICinitial [7] of 1. The MICfinal [7, 13] was 0.125, the MICfinal [7, 14] was 0.125 and the MICfinal [7, 12] was 0.25. For the same molecule, the MICinitial [8] was 1, the MICfinal [8, 13] was 0.125 and the MICfinal [8, 14] was 0.25. For the same molecule, the MICfinal [8, 12] was 0.25, the MICinitial [9] was 1 and the MICfinal [9, 13] was 0.125. The MICfinal [9, 14] was 0.125, the MICfinal [9, 12] was 0.25 and the MICinitial [10] was 1. For the same molecule, the MICfinal [10, 13] was 0.25, the MICfinal [10, 14] was 0.25 and the MICfinal [10, 12] was 0.25. For the same molecule, the “Log10 CFU/g of Vegetation” value ([11]; PlySs2 0.18 mg/kg, TSAB supplemented with PlySs2, 128 (unit not given)) was 4.6 ± 0.7 Log10 CFU/g, the “Log10 CFU/g of Vegetation” value ([11]; PlySs2 0.18 mg/kg, TSAB supplemented with PlySs2, column 16 (unit not printed)) was 7.1 ± 0.1 Log10 CFU/g and the “Log10 CFU/g of Vegetation” value ([11]; PlySs2 0.18 mg/kg, TSAB supplemented with PlySs2, column 32 (unit not printed)) was 7.1 ± 0.1 Log10 CFU/g. For the same molecule, the “Log10 CFU/g of Vegetation” value ([11]; PlySs2 0.18 mg/kg, TSAB supplemented with PlySs2, column 64 (unit not given)) was 6.6 ± 0.9 Log10 CFU/g, the “Log10 CFU/g of Vegetation” value ([11]; PlySs2 0.35 mg/kg, TSAB supplemented with PlySs2, 128 (unit not given)) was 3.4 ± 1.3 Log10 CFU/g and the “Log10 CFU/g of Vegetation” value ([11]; PlySs2 0.35 mg/kg, TSAB supplemented with PlySs2, column 16 (unit not printed)) was 6.9 ± 0.2 Log10 CFU/g. For the same molecule, the “Log10 CFU/g of Vegetation” value ([11]; PlySs2 0.35 mg/kg, TSAB supplemented with PlySs2, column 32 (unit not printed)) was 6.4 ± 0.5 Log10 CFU/g, the “Log10 CFU/g of Vegetation” value ([11]; PlySs2 0.35 mg/kg, TSAB supplemented with PlySs2, column 64 (unit not given)) was 5.5 ± 0.6 Log10 CFU/g and the “Log10 CFU/g of Vegetation” value ([11]; PlySs2 0.7 mg/kg, TSAB supplemented with PlySs2, 128 (unit not given)) was under 2.1 ± 0.1 Log10 CFU/g. The “Log10 CFU/g of Vegetation” value ([11]; PlySs2 0.7 mg/kg, TSAB supplemented with PlySs2, column 16 (unit not printed)) was 6.7 ± 0.1 Log10 CFU/g, the “Log10 CFU/g of Vegetation” value ([11]; PlySs2 0.7 mg/kg, TSAB supplemented with PlySs2, column 32 (unit not printed)) was 5.7 ± 1.1 Log10 CFU/g and the “Log10 CFU/g of Vegetation” value ([11]; PlySs2 0.7 mg/kg, TSAB supplemented with PlySs2, column 64 (unit not given)) was 3.8 ± 1.8 Log10 CFU/g. The “Log10 CFU/g of Vegetation” value ([11]; PlySs2 1.4 mg/kg, TSAB supplemented with PlySs2, 128 (unit not given)) was 2.8 ± 1.2 Log10 CFU/g, the “Log10 CFU/g of Vegetation” value ([11]; PlySs2 1.4 mg/kg, TSAB supplemented with PlySs2, column 16 (unit not printed)) was 7.1 ± 0.06 Log10 CFU/g and the “Log10 CFU/g of Vegetation” value ([11]; PlySs2 1.4 mg/kg, TSAB supplemented with PlySs2, column 32 (unit not printed)) was 5.9 ± 0.03 Log10 CFU/g. For the same molecule, the “Log10 CFU/g of Vegetation” value ([11]; PlySs2 1.4 mg/kg, TSAB supplemented with PlySs2, column 64 (unit not given)) was 4.2 ± 1.7 Log10 CFU/g, the “Log10 CFU/g of Vegetation” value ([11]; single dose PlySs2 0.18 mg/kg, four days after treatment, TSAB non-selective (0)) was 8.65 ± 0.58 Log10 CFU/g and the “Log10 CFU/g of Vegetation” value ([11]; single dose PlySs2 0.35 mg/kg, four days after treatment, TSAB non-selective (0)) was 8.17 ± 0.58 Log10 CFU/g. The “Log10 CFU/g of Vegetation” value ([11]; single dose PlySs2 0.7 mg/kg, four days after treatment, TSAB non-selective (0)) was 7.93 ± 0.12 Log10 CFU/g and the “Log10 CFU/g of Vegetation” value ([11]; single dose PlySs2 1.4 mg/kg, four days after treatment, TSAB non-selective (0)) was 8.24 ± 0.02 Log10 CFU/g.
